Measured values reported in the supplement of paper PMC9112550, “Optimization of the antimicrobial peptide Bac7 by deep mutational scanning” (BMC Biology, 2022).

System: Escherichia coli TOP10
Assay: shrunken log2 fold change of peptide-encoding DNA abundance (4.5 h post-induction vs induction); higher = less antimicrobial activity (less host growth inhibition)
Conditions: time post-induction: 4.5 h; library: site-saturation at positions 5, 18, 19, 20
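Further: peptides expressed intracellularly from a pBAD plasmid library in pooled LB shake-flask culture, induced with 0.3% L-arabinose, DNA abundance read by NGS, three biological replicates, DESeq2 with apeglm shrinkage.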

Sequence | shrunken log2 fold change
RRIRDRPPRLPRPRPRPIMDPRP | 0.308
RRIRDRPPRLPRPRPRPIPPPRP | 0.239
RRIRDRPPRLPRPRPRPIQIPRP | -0.384
RRIRDRPPRLPRPRPRPIQKPRP | -0.0081
RRIRDRPPRLPRPRPRPIQRPRP | -0.01
RRIRDRPPRLPRPRPRPIRVPRP | -0.185
RRIRDRPPRLPRPRPRPIWGPRP | -0.0681
RRIRDRPPRLPRPRPRPIWHPRP | 0.144
RRIRDRPPRLPRPRPRPIWNPRP | -0.0889
RRIRDRPPRLPRPRPRPKANPRP | 0.091
RRIRDRPPRLPRPRPRPKARPRP | 0.132
RRIRDRPPRLPRPRPRPKCCPRP | 0.112
RRIRDRPPRLPRPRPRPKECPRP | 0.184
RRIRDRPPRLPRPRPRPKEDPRP | 0.337
RRIRDRPPRLPRPRPRPKEHPRP | 0.0267
RRIRDRPPRLPRPRPRPKELPRP | 0.0843
RRIRDRPPRLPRPRPRPKENPRP | 0.0579
RRIRDRPPRLPRPRPRPKFNPRP | -0.236
RRIRDRPPRLPRPRPRPKGHPRP | 0.0517
RRIRDRPPRLPRPRPRPKGPPRP | -0.0184
RRIRDRPPRLPRPRPRPKGVPRP | -0.00195
RRIRDRPPRLPRPRPRPKIQPRP | 0.0161
RRIRDRPPRLPRPRPRPKKKPRP | -0.0718
RRIRDRPPRLPRPRPRPKLIPRP | 0.088
RRIRDRPPRLPRPRPRPKLNPRP | 0.0523
RRIRDRPPRLPRPRPRPKMIPRP | -0.185
RRIRDRPPRLPRPRPRPKNSPRP | 0.788

Sequence | shrunken log2 fold change
RRIRDRPPRLPRPRPRPKNYPRP | -0.303
RRIRDRPPRLPRPRPRPKQEPRP | 0.00491
RRIRDRPPRLPRPRPRPKRTPRP | 0.143
RRIRDRPPRLPRPRPRPKRVPRP | -0.0521
RRIRDRPPRLPRPRPRPKSAPRP | 0.0797
RRIRDRPPRLPRPRPRPKSCPRP | -0.0117
RRIRDRPPRLPRPRPRPKSKPRP | -0.105
RRIRDRPPRLPRPRPRPKTAPRP | 0.00938
RRIRDRPPRLPRPRPRPKVHPRP | -0.216
RRIRDRPPRLPRPRPRPKYEPRP | -0.00728
RRIRDRPPRLPRPRPRPKYKPRP | -0.739
RRIRDRPPRLPRPRPRPLCHPRP | 0.0833
RRIRDRPPRLPRPRPRPLCNPRP | -0.00406
RRIRDRPPRLPRPRPRPLCPPRP | -0.00491
RRIRDRPPRLPRPRPRPLDDPRP | 0.459
RRIRDRPPRLPRPRPRPLDQPRP | 0.0626
RRIRDRPPRLPRPRPRPLELPRP | -0.014
RRIRDRPPRLPRPRPRPLEQPRP | 0.57
RRIRDRPPRLPRPRPRPLFVPRP | -0.168
RRIRDRPPRLPRPRPRPLFWPRP | 0.516
RRIRDRPPRLPRPRPRPLGGPRP | 0.461
RRIRDRPPRLPRPRPRPLGMPRP | 0.111
RRIRDRPPRLPRPRPRPLHTPRP | -0.0544
RRIRDRPPRLPRPRPRPLKEPRP | -0.277
RRIRDRPPRLPRPRPRPLKIPRP | -0.297
RRIRDRPPRLPRPRPRPLKTPRP | 0.333
RRIRDRPPRLPRPRPRPLKVPRP | -0.0261
